Earlier results, collected in US10190113B2, “Methods and compositions for segregating target nucleic acid from mixed nucleic acid samples” (FLIR DETECTION, INC., priority 2011, dated 2019).

Tested on: nucleic acid recognition or cleavage site
Settings: mutant restriction enzyme relative to wild type; cited from earlier work

Molecule | % of WT cleavage activity [%]
BsoBI D212V: BsoBI restriction enzyme with mutation D212V (protein, UniProt P70985 2-323, looked up, variant D212V) Type II restriction enzyme …: NTQKPFENHLKSVDDLKTTYEEYRAGFIAFALEKNKRSTPYIERARALKVAASVAKTPKDLLYLEDIQDALLYASGISDKAKKFLTEDDKKESINNLIENFLEPAGEEFIDELIFRYLLFQGDSLGGTMRNIAGALAQQKLTRAIISALDIANIPYKWLDSRDKKYTNWMDKPEDDYELETFAKGISWTINGKHRTLMYNITVPLVKKNVVICLFNCEPEIYTPQKVHQQPEKYLLLGELKGGIDPAGADEHWKTANTALTRIRNKFSEKGLSPKTIFIGAAIEHSMAEEIWDQLQSGSLTNSANLTKTEQVGSLCRWIINI | <0.1
BsoBI D246G: BsoBI restriction enzyme with mutation D246G (protein, UniProt P70985 2-323, looked up, variant D246G) Type II restriction enzyme …: NTQKPFENHLKSVDDLKTTYEEYRAGFIAFALEKNKRSTPYIERARALKVAASVAKTPKDLLYLEDIQDALLYASGISDKAKKFLTEDDKKESINNLIENFLEPAGEEFIDELIFRYLLFQGDSLGGTMRNIAGALAQQKLTRAIISALDIANIPYKWLDSRDKKYTNWMDKPEDDYELETFAKGISWTINGKHRTLMYNITVPLVKKNVDICLFNCEPEIYTPQKVHQQPEKYLLLGELKGGIGPAGADEHWKTANTALTRIRNKFSEKGLSPKTIFIGAAIEHSMAEEIWDQLQSGSLTNSANLTKTEQVGSLCRWIINI | <0.1
BsoBI E252K: BsoBI restriction enzyme with mutation E252K (protein, UniProt P70985 2-323, looked up, variant E252K) Type II restriction enzyme …: NTQKPFENHLKSVDDLKTTYEEYRAGFIAFALEKNKRSTPYIERARALKVAASVAKTPKDLLYLEDIQDALLYASGISDKAKKFLTEDDKKESINNLIENFLEPAGEEFIDELIFRYLLFQGDSLGGTMRNIAGALAQQKLTRAIISALDIANIPYKWLDSRDKKYTNWMDKPEDDYELETFAKGISWTINGKHRTLMYNITVPLVKKNVDICLFNCEPEIYTPQKVHQQPEKYLLLGELKGGIDPAGADKHWKTANTALTRIRNKFSEKGLSPKTIFIGAAIEHSMAEEIWDQLQSGSLTNSANLTKTEQVGSLCRWIINI | <0.1
Eco57I D78N: Eco57I restriction enzyme with mutation D78N (protein, UniProt P25239 1-998, looked up, variant D78N) Type II restriction enzyme …: MNKKDQLQRLIDKYKSDIDYYRSARYNETQLRTDFLDQLFLILGWDITNAAGKPTNEREVLVEEGLKARAGENTKKPNYTFRLFSERKFFLEAKKPSVDISTTIEPALQVRRYGFTAKLKISVLSNFEYTAIYDCSNQVKETDSVANSRIKLYHFTELVDKFDEINNLIGRESVYTGHFDNEWSEIENKILRFSVDDLFLKQINDWRLLLANEFLQIKNELPEEKLNDLVQNYINSIVFLRVCEDRDLEEYETLYHFAQDKDFQSLVKKLKSSDKKYNSGLFSLEYIDELLSNANSCIWSIIEQLYFPQSTYSFSVFSSDILGNIYEIFLSEKVRIDELGNVKIQPKEEHIDRDVVTTPTHIVKEIIRNTVVEYCKGKSDIEILNSKFADIACGSGAFIIEAFQFIQDILIDYYIQNDKSKLQQISEHTYKLKFEVKREILCKCIYGIDKDYNATKACTFGLLLKLLEGETTETIGKDTPILPALDTNILFGNSLIDSGDKVKQEDIFSINPFDLTNYQFDVIVGNPPYMATEHMNQLTPKELDIYKRKYKSAYKQFDKYFLFIERSIQILKEYGYLGYILPSRFIKVDAGKKLRKFLSENKYLSKLISFGSHQVFKNKTTYTCLLFLNKENHDNFSFYEVKDFKKWLTREDKYLLSSTYQTSSLDSDTWVLEKKINDILKLMFSKSEQLGNIVGKSNVANGIQTSANKYYIHKEIKSENGFIYFEYDGIEYHIEKELTRPYFETNRSGDDSFYTYKDVEPNSFVVYPYKKVGERIQFIEYDELKRQYPKLFEFLQVVKVHLNDKKRSIKPDPTGPNEWYRYGRSQALENCDVDQKLIVGILSNGYKYSIDNHRTFVSSGGTAGYSIINIPNNVRYSIYYIQAILTSKYLEWFASIYGDIFRGRFVARGTKVQTRMPIPTIDFDDPKQKEIHDTISSKQQYLNKLYSQTQKSADRDKIIFERQFEQEKIQMDYLIKNLFDLGDLDSEIPTVEDLYKNL | <0.1
